Molecular target: Lcl C-terminal domain (Lcl-CTD, residues 252 to 401) (Legionella pneumophila strain 130b)
Test: SEC-MALS

Substance: Lcl C-terminal domain (Lcl-CTD, residues 252 to 401) (domain or fragment)
- stoichiometry N: 3
